From US20050261472A1, “Binding moieties for fibrin” (Dyax Corp., priority 1999, published 2005)
Bridge positions count the residues as written; N and C are the ends. Ends that are not written are not given here.

Legend:
DD(E) = molecular target: T1, DD(E) (Homo sapiens, UniProt P02671+P02675+P02679); experiment: dissociation constant against fibrin-derived polypeptide DD(E); type: binding; settings: read-out: Kd DD(E)
T1 construct: host or cells: purchased fibrinogen clotted with thrombin, digested with plasmin, then purified by ammonium sulfate cuts and Sephacryl S200

fibrinogen [1] = molecular target: T2, fibrinogen (Homo sapiens, UniProt P02671+P02675+P02679); experiment: binding affinity by equilibrium dialysis; settings: 190 μM vs. 2.7 μM
T2 sequence (P02671 20-644 isoform P02671-2 limits assumed): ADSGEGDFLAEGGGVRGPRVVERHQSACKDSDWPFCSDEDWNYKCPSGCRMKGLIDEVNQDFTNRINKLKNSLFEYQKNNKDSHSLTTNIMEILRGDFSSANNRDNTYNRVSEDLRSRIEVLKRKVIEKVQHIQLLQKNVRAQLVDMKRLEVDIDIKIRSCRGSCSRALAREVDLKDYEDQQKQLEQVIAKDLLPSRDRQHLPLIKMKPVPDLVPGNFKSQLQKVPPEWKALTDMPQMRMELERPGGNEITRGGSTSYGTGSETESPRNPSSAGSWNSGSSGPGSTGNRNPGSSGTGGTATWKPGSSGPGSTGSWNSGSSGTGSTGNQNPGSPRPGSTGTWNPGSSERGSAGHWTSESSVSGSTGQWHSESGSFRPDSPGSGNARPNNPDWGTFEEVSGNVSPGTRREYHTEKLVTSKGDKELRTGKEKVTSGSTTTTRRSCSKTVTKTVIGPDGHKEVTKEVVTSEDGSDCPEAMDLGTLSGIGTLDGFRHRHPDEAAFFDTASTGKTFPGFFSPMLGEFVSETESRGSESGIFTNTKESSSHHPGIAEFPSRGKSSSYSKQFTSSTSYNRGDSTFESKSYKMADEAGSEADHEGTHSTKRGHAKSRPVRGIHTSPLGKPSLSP
T2 sequence (P02675 31-491): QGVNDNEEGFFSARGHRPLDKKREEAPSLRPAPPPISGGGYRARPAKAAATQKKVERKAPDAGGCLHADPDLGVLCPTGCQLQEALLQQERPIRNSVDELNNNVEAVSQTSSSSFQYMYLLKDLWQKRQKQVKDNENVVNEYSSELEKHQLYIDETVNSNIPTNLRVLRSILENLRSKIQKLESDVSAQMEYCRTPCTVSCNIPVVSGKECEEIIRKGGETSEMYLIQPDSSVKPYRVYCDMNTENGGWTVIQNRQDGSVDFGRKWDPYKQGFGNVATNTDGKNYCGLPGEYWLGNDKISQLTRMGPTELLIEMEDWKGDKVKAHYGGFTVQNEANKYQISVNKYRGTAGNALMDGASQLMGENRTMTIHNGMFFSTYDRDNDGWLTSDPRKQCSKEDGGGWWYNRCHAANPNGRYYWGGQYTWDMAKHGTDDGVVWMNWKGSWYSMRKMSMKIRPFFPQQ
T2 sequence (P02679 27-437 isoform P02679-2 limits assumed): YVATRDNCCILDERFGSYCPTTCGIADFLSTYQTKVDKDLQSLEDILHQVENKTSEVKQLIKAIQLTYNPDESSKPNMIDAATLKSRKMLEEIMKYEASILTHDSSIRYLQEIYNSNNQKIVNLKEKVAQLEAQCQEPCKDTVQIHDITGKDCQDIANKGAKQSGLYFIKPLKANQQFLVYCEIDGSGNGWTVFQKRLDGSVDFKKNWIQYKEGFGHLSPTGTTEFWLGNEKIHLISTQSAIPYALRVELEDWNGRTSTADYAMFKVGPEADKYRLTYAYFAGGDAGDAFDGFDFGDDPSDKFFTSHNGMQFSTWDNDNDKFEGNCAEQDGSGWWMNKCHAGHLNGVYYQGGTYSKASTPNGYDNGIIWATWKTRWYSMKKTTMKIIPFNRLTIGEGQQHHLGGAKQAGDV
Protocol: (§1) A solution of fibrinogen (10 mg/ml) was mixed with the MR labeled peptide of Example 11 designated Gd-DTPA-Pep1, at concentrations of 10, 50 and 100 μM. The fibrinogen/peptide solution was placed on one side of a dialysis membrane in an equilibrium dialysis apparatus. The solution was allowed to equilibrate with an equal volume of buffer on the opposite side of the membrane.

dried fibrin [2] = molecular target: T3, dried fibrin (UniProt P02671 36-629; P02675 45-491; P02679 27-437, limits assumed); experiment: ratio of Kd for fibrinogen (equilibrium dialysis) to Kd for fibrin
T3 construct: Polymerised fibrin made in 96-well plates from fibrinogen and thrombin, dried at 37 C and rehydrated; also called (rehydrated) dried fibrin; fibrin target
T3 sequence (looked up) 1: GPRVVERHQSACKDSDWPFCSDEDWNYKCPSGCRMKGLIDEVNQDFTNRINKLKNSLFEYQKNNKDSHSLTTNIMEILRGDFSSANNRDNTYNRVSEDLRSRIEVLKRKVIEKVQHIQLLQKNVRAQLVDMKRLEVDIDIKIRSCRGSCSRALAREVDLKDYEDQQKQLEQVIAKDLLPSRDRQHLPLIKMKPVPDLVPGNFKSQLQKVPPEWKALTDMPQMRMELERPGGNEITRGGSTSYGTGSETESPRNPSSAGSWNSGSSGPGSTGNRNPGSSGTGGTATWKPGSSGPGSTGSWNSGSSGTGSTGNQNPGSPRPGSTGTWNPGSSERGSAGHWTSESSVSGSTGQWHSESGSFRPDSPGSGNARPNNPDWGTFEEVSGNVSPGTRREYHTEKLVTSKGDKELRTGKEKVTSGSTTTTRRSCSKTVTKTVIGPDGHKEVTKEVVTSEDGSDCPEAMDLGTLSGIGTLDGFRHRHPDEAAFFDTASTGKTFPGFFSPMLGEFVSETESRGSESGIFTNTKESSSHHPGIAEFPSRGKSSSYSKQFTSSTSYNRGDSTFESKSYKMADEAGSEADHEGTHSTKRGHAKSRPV
T3 sequence (looked up) 2: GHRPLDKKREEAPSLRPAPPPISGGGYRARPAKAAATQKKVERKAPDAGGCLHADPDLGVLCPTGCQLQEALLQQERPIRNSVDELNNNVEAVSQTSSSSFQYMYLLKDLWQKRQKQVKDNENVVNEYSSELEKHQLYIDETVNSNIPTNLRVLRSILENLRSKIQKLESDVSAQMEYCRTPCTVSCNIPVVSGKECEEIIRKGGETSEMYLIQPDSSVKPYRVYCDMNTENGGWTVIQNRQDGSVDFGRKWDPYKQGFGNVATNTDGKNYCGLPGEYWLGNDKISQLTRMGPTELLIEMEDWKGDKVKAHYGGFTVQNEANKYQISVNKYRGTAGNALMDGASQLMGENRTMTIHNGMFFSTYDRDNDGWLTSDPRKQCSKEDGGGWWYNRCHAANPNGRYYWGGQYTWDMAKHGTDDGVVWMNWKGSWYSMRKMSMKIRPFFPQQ
T3 sequence (looked up) 3: T2 sequence (P02679 27-437 isoform P02679-2 limits assumed)
Protocol: as §1

[3] = molecular target: T4, fibrin of an in vitro clot formed from human blood plasma (human, UniProt P02671 36-629; P02675 45-491; P02679 27-437); experiment: human plasma clotted in the presence of peptide, free peptide by Gd I.C.P., bound vs free fit
T4 construct: Plasma of a human donor clotted with CaCl2 in the presence of the peptide; also called in vitro blood clot
T4 sequence (looked up) 1: T3 sequence (looked up) 1
T4 sequence (looked up) 2: T3 sequence (looked up) 2
T4 sequence (looked up) 3: T2 sequence (P02679 27-437 isoform P02679-2 limits assumed)
Protocol: Freshly drawn whole blood was obtained from a human donor and centrifuged at 4000×g for 15 minutes to remove the hematocrit. The blood plasma (supernatant) was removed and dispensed into ten 1.5 ml tubes, 500 μL/tube. The MR labeled peptide of Example 11, GdDTPA-Pep1, was added to each tube at increasing concentrations (2, 5, 8, 10, 15, 20, 30, 50, 75, 100 μM) along with PBS buffer (50 mM sodium phosphate, 150 mM NaCl, pH 7.4) to bring the total volume to 550 μL. The sample was equilibrated at 37° C. A small aliquot (50 μL) was removed for quantitating the total peptide added (measured by Gd I.C.P. analysis after dilution into 0.1 M HNO₃). Clotting was initiated by the addition of 5 μL 2 M CaCl₂, and the samples are incubated at 37° C. for 1 hour. The tubes were spun down briefly (5 sec) and the clot was removed with a pipet tip. The remaining supernatant (˜200 μL) was diluted in HNO₃ and the peptide concentration (equal to the concentration of unbound or free peptide) was measured by Gd I.C.P. analysis. The difference between the total and free peptide concentrations yields the concentration of bound peptide.

fibrinogen [4] = molecular target: T5, fibrinogen (UniProt P02671 20-629; P02675 31-491; P02679 27-437, limits assumed); experiment: equilibrium dialysis, fibrinogen 10 mg/ml, peptide by I.C.P.
T5 sequence (looked up) 1: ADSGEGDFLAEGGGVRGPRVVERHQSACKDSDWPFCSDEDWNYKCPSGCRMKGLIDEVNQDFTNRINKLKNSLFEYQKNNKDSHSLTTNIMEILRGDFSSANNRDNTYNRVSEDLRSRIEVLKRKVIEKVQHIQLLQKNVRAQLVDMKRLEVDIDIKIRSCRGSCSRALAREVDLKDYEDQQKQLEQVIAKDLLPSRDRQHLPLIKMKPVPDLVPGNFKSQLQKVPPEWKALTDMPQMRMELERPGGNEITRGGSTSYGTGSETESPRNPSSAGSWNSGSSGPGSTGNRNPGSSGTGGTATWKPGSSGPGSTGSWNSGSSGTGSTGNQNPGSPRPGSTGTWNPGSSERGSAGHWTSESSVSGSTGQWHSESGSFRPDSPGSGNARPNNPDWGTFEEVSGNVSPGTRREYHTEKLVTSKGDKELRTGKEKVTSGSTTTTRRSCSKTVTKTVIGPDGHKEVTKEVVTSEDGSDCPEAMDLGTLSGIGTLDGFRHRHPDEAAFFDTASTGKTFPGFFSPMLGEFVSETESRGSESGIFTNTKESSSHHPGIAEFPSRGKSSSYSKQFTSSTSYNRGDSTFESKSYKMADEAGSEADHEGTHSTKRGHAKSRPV
T5 sequence (looked up) 2: T2 sequence (P02675 31-491)
T5 sequence (looked up) 3: T2 sequence (P02679 27-437 isoform P02679-2 limits assumed)
Protocol: as §1

dried fibrin [5] = molecular target: T3, dried fibrin; experiment: dried fibrin plate, bound vs free peptide

## CC(C)C[C@H](NC(=O)[C@@H]1CSSC[C@H](NC(=O)[C@@H]2CCCN2C(=O)[C@H](CC(C)C)NC(=O)C[C@@H](C(=O)O)N(CCN(CC(=O)O)CC(=O)O)CCN(CC(=O)O)CC(=O)O)C(=O)N[C@@H](CC(=O)O)C(=O)N[C@@H](Cc2ccc(O)cc2)C(=O)N[C@@H](Cc2ccc(O)cc2)C(=O)NCC(=O)N[C@@H]([C@@H](C)O)C(=O)N1)C(=O)N[C@@H](CC(=O)O)C(N)=O [Gd-DTPA-Pep1]
DD(E)
  Kd: 2.9 µM
Fibrinogen [1]
  specificity for fibrin over fibrinogen: roughly 70 fold

B1: Gd-DTPA-Pep1 (peptide)
peptide: LPCDYYGTCLD
modifications: disulfide 3-9 (inferred); not fully specified (N-terminus); also: Gd(III)-DTPA chelate, from DTPA-Asp(beta-COOH)-OtBu
Dried fibrin [2]
  specificity for fibrin over fibrinogen (fold): ~70 fold
[3]
  Kd: ~20 µM
Fibrinogen [4]
  Kd: 190 µM
Dried fibrin [5]
  Kd: 7.4 µM
